Target: Kringle 3 domain of human plasminogen (K3) with a C-terminal hexa-histidine tag, made in P. pastoris (human) (UniProt P00747)

“beta 1,4-galactosyltransferase from bovine milk (from UniProt P08037) (enzyme)” showed an increase in mass by MALDI-TOF mass spectrometry of the protein and of its released N-glycans of 325 Da.

From patent publication US8932825B2
